Results on 1 molecule are retold here after patent US20210371863, “HIGH EFFICIENCY APTAMER COMPLEX COMPRISING BRANCHED DNA AND APTAMER, AND USE THEREOF” (POSTECH ACADEMY-INDUSTRY FOUNDATION, published 2021).

The data set concerns the target VEGF (hVEGF) (Homo sapiens, UniProt P15692-4 P15692-4:27-191). The data set is described as follows: ELISA; remarkable capture efficiency after 4 h at room temperature, PD-10 column filtration; but p70 (FIG. 9) reports OA captured little hVEGF independent of serum incubation time. The conditions noted are these: quantified with hVEGF ELISA kit (Komabiotech); chain copies: 2; hairpin. How it is done: To confirm the hVEGF capture ability of OA, AA, and CA, each prepared sample was mixed with hVEGF solution for 4 hours at room temperature, and the mixed solution was filtered through a PD-10 column (Sephadex G-25, GE Healthcare, Sweden). The amount of non-purified hVEGF was measured by the hVEGF enzyme-linked immunosorbent assay kit (ELISA kit, Komabiotech) according to the manufacturer's guidelines (absorbance measurement at 490 nm by VICTOR3 V™ (Multilabel Counter, Perkin Elmer, Wellesley, Mass., USA)). The hVEGF capture ability of other samples such as OSc, ASc, and CSc was measured in the same way, and the results are shown in FIG. 10.
(In general: In an ELISA, binding on a coated surface is turned into a signal by an enzyme label.)

Sequence of VEGF (hVEGF) (P15692 other isoform, or with tags, fused parts or gaps): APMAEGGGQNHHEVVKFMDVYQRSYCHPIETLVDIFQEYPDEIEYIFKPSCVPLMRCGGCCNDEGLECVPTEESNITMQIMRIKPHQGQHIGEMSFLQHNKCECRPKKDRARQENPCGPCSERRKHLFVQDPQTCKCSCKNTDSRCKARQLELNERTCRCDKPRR

B1: OA (oligomeric hVEGF aptamer, Y_Vapt) (ssDNA)
DNA: AGCTTCAGGCGAGGAGCCCACCCCGTCTTCCAGACAAGAGTGCAGGGGTGGCGAGGAGCGGACA
Consider B1, for which the binding result is reported as “binds”.
